Test results as given in PMC4516351, “Est16, a New Esterase Isolated from a Metagenomic Library of a Microbial Consortium Specializing in Diesel Oil Degradation” (PLoS ONE, 2015).

Experiments:
Assay in all cases: purified protein
Format in all cases: biochemical, uncultured bacterium
[1] = system: T1, CCCCCCCCCC(=O)Oc1ccc([N+](=O)[O-])cc1; conditions: 50 mM Tris-HCl pH 8.0, 30°C, 0.3% (v/v) triton X-100, 15 nM enzyme
T1 construct: full-length ORF (906 bp, 302 residues), pET28a, N-terminal His6-tag and thrombin site, tag cutting not mentioned; E. coli BL21(DE3); IMAC and SEC

[2] = system: T2, CCCCCCCC(=O)Oc1ccc([N+](=O)[O-])cc1; conditions: 50 mM Tris-HCl pH 8.0, 30°C, 0.3% (v/v) triton X-100, 15 nM enzyme
T2 construct: full-length ORF (906 bp, 302 residues), pET28a, N-terminal His6-tag and thrombin site, tag cutting not mentioned; E. coli BL21(DE3); IMAC and SEC

[3] = system: T3, CCCC(=O)Oc1ccc([N+](=O)[O-])cc1; conditions: 50 mM Tris-HCl pH 8.0, 30°C, 0.3% (v/v) triton X-100, 15 nM enzyme
T3 construct: full-length ORF (906 bp, 302 residues), pET28a, N-terminal His6-tag and thrombin site, tag cutting not mentioned; E. coli BL21(DE3); IMAC and SEC

[4] = system: T4, CCCCC(=O)Oc1ccc([N+](=O)[O-])cc1; conditions: 50 mM Tris-HCl pH 8.0, 30°C, 0.3% (v/v) triton X-100, 15 nM enzyme
T4 construct: full-length ORF (906 bp, 302 residues), pET28a, N-terminal His6-tag and thrombin site, tag cutting not mentioned; E. coli BL21(DE3); IMAC and SEC

[5] = system: T5, CCCCCCCCCCCC(=O)Oc1ccc([N+](=O)[O-])cc1; conditions: 50 mM Tris-HCl pH 8.0, 30°C, 0.3% (v/v) triton X-100, 50 nM enzyme
T5 construct: full-length ORF (906 bp, 302 residues), pET28a, N-terminal His6-tag and thrombin site, tag cutting not mentioned; E. coli BL21(DE3); IMAC and SEC

Est16 (uncultured bacterium)
Km [1]: 1066.0 ± 116.9 µM
Vmax [1]: 82.7 µM/min
kcat [1]: 88.4 ± 4.81 s⁻¹
kcat/Km [1]: 83300 ± 10000 M⁻¹ s⁻¹
Km [2]: 628.6 ± 101.4 µM
Vmax [2]: 128 µM/min
kcat [2]: 137 ± 9.19 s⁻¹
kcat/Km [2]: 223000 ± 36700 M⁻¹ s⁻¹
Km [3]: 225.1 ± 31.8 µM
Vmax [3]: 206 µM/min
kcat [3]: 220 ± 9.72 s⁻¹
kcat/Km [3]: 998000 ± 142000 M⁻¹ s⁻¹
Km [4]: 320.4 ± 32.5 µM
Vmax [4]: 197 µM/min
kcat [4]: 211 ± 7.26 s⁻¹
kcat/Km [4]: 665000 ± 66700 M⁻¹ s⁻¹
Km [5]: 969.5 ± 42.5 µM
Vmax [5]: 22.9 µM/min
kcat [5]: 24.5 ± 0.535 s⁻¹
kcat/Km [5]: 25000 ± 1670 M⁻¹ s⁻¹
